These results are taken from US9486502B2, “Methods of administering interferon gamma to absorb fluid from the subretinal space” (The United States of America, as represented by the …, priority 2008, dated 2016).

One series has as its system hfRPE cells. The series can be described thus: BrdU incorporation assay, hfRPE proliferation. The settings on record: data not shown. The series is classed as cell-based, human. The procedure:
BrdU incorporation was performed as described in Li, R. et al., 2007, Invest Ophthalmol Vis Sci, 48, 5722-5732, incorporated by reference in its entirety herein. IFNγ, TNFα, and IL-1β were obtained from Peprotech, Rocky Hill, N.J., and Universal Type I Interferon (cat: 11200-1) or human interferon beta la were from PBL biomedical laboratories (New Brunswick, N.J.). Cumulative effects were measured by adding VEGF165, EGF and bFGF (Peprotech), and PDGF-BB (R & D Systems) with IFNγ. Anti-human IFNγ R1 blocking antibody (R & D Systems, Minneapolis, Minn.), JAK inhibitor I, AG490, or JAK3 inhibitor II (EMD Biosciences, Gibbstown, N.J.) was added to the cells one hour prior to the addition of IFNγ. SFM was used as the negative control and SFM supplemented with 5% serum was used as positive control. After treatment for 48 hours, RPE cells were incubated with BrdU for 24 hours. The proliferation rate was evaluated using a Cell proliferation ELISA BrdU Kit (Roche, Ind.). Quadruplicate wells were used for each condition and the experiments were repeated at least two times using cell cultures from different donors. Cell viability was evaluated using a Live/Dead Viability/Cytotoxicity Kit (Invitrogen).

The conditions of series [1]: multiple instillations per day for months; literature; cited from earlier work.
Series [2] is described as follows: Phase I study of topical interferon gamma-1b in CME secondary to uveitis (OCT macular thickness). Conditions: patients with CME secondary to uveitis, topical instillation(s), OCT post-instillation. It counts as in vivo, human. An excerpt:
To test whether cystoid macular edema (CME), secondary to uveitis, is caused by the disequilibrium of the Jak/Stat and mTor signal transduction pathways in the retinal pigment epithelium (RPE), interferon gamma-1β topically applied in human patients. Five participants with CME secondary to uveitis receive a topical ocular instillation of interferon gamma-1b in a Phase I, non-randomized, prospective, uncontrolled, dose-escalation, single-center study. The study involves a one-time instillation or series of instillations of interferon gamma-1b on the cornea and measurement of a response with optical coherence tomography (OCT) over a three hour period.
A 25% decrease in macular thickness is observed at a post-instillation as compared to baseline. In the study, the first two participants receive one instillation (each instillation contains […] in 0.05 mL solution) on the cornea at time zero, the next two participants receive two instillations, 10 minutes apart, for a total dosage of 20 μg, and the final participant receives three instillations, 10 minutes apart, for a total of 30 μg. OCT will be obtained at −60 minutes, −30 minutes and just before the instillation(s). […]
Participants with CME secondary to uveitis are treated with ocular instillation(s) of interferon gamma-1b. […] The effect on the retinal thickness is measured using OCT measurements as indicated below. […]

Take IFNα: in the series with hfRPE cells, the “effect of type I IFN on hfRPE proliferation” value was “no effect”. Also, the “side effects reported from topical administration” value in series [1] is “follicular conjunctivis and conjunctival injection”.

B1: interferon gamma-1b: biologic response modifier, single chain polypeptide containing 140 amino acids (Actimmune®) (protein, UniProt P01579 24-161, looked up)
Interferon gamma: QDPYVKEAENLKKYFNAGHSDVADNGTLFLGILKNWKEESDRKIMQSQIVSFYFKLFKNFKDDQSIQKSVETIKEDMNVKFFNSNKKKRDDFEKLTNYSVTDLNVQRKAIHELIQVMAELSPAAKTGKRKRSQMLFRG
modifications: interferon gamma-1b
Turning to B1, in series [2], the “decrease in (central) macular thickness versus baseline” value came to 25%.
